Substrate in the data set: Nc1ccn([C@@H]2O[C@H](CO)[C@@H](O)C2(F)F)c(=O)n1
The experiment in a line: Activity of human recombinant N-terminal His-SUMO fused wild type CDA expressed in Escherichia coli BL21(DE3) cells assessed as 2',2'-difluorodeoxyuridine formation by liquid chromatography-tandem mass spectrometry. Format: ADME.

B1: Cytidine deaminase (Homo sapiens) (protein)
chain: MAQKRPACTLKPECVQQLLVCSQEAKKSAYCPYSHFPVGAALLTQEGRIFKGCNIENACYPLGICAERTAIQKAVSEGYKDFRAIAIASDMQDDFISPCGACRQVMREFGTNWPVYMTKPDGTYIVMTVQELLPSSFGPEDLQKTQ
In the case of B1, the Km (as a rule, the substrate concentration at which the rate is half of its maximum) worked out at 630 µM and the Vmax (commonly the top rate of the reaction or transport when substrate is in excess) is 0.187 µmol/min/mg.

The record behind these values is ChEMBL document CHEMBL3525898, “Pharmacogenomics of gemcitabine metabolism: functional analysis of genetic variants in cytidine deaminase and deoxycytidine kinase” (Drug Metab Dispos, 2013).
